{
  "source": "paper PMC12205998",
  "key": {"[1]": {"molecular_target": "E. fergusonii BrxB WT (Escherichia fergusonii)", "assay": "native MS; collected BrxB SEC peaks exchanged into 10 mM ammonium bicarbonate, 0.5 mg/ml, positive ion electrospray time-of-flight MS; monomer and dimer"}, "[2]": {"molecular_target": "E. fergusonii BrxB WT (Escherichia fergusonii)", "assay": "SEC; analytical SEC of E. fergusonii BrxB alone, 10 μM in 100 μl, Superdex 75 increase 10/300 GL, 20 mM Tris HCl pH 7.9, 150 mM NaCl; monomer and dimer"}},
  "data": [
    {"substance": "E. fergusonii BrxB WT (natural protein)", "values": [
      {"measurement": "stoichiometry N", "setting": "[1]", "value": 2},
      {"measurement": "stoichiometry N", "setting": "[2]", "value": 2}
    ]}
  ]
}
